Assay results from publication PMC4364741, “Recognition of Neisseria meningitidis by the Long Pentraxin PTX3 and Its Role as an Endogenous Adjuvant” (PLoS ONE, 2015).

Target: T1, Biotinylated human PTX3 (bPTX3) (human, UniProt P26022 18-381, biotin (sites not given))
T1 construct: Long pentraxin 3 (PTX3), human, as m1 but biotinylated; secreted by CHO cells and purified from the supernatant; Same protein as m1 with a biotin label; also called human bPTX3
Assay: ELISA; bPTX3 (0.56–17.92 pmol) on triplicate wells coated with 125 pmol/well of antigen; bound PTX3 from a standard curve of bPTX3; nonlinear fitting, one site binding curve; apparent
Conditions: both partners purified

T1 sequence (P26022 18-381): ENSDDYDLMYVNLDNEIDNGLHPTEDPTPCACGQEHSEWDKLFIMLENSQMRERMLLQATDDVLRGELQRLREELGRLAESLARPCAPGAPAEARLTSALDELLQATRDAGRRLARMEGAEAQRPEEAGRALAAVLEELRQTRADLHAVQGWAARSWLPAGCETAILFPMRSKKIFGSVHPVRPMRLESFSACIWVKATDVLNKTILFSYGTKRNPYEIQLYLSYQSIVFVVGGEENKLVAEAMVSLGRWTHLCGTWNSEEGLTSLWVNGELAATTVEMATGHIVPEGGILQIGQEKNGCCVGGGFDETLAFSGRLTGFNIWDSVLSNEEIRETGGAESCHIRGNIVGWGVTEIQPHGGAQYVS

Binder	Kd [nM]
Genome-derived Neisserial antigen GNA1030 (natural protein) ATYKVDEYHANARFAIDHFNTSTNVGGFYGLTGSVEFDQAKRDGKIDITIPIANLQSGSQHFTDHLKSADIFDAAQYPDIRFVSTKFNFNGKKLVSVDGNLTMHGKTAPVKLKAEKFNCYQSPMEKTEVCGGDFSTTIDRTKWGMDYLVNVGMTKSVRIDIQIEAAKQ	37
Genome-derived Neisserial antigen GNA2091 (natural protein, Neisseria meningitidis, UniProt Q9JXE1 1-202, looked up, GNA2091, recombinant surface molecule of Neisseria meningitidis) CVSAVIGSAAVGAKSAVDRRTTGAQTDDNVMALRIETTARSYLRQNNQTKGYTPQISVVGYNRHLLLLGQVATEGEKQFVGQIARSEQAAEGVYNYITVASLPRTAGDIAGDTWNTSKVRATLLGISPATQARVKIVTYGNVTYVMGILTPEEQAQITQKVSTTVGVQKVITLYQNYVQR	4
